Residue numbers refer to the chain shown, from its start. Numbers in names are those of the source. No end group written: not given here. *: point of attachment. RhodamineB = CCN(CC)c1ccc2c(-c3ccccc3C(=O)*)c3ccc(=[N+](CC)CC)cc-3oc2c1
T1: NativeRPtag(large)_with_Tags_and_Cys (Thermoanaerobacter tengcongensis)
T1 construct: Unlabeled in anisotropy assays; coupled through the engineered N-terminal Cys to SulfoLink agarose or maleimide plates in column, pull-down and ELISA assays
T1 chain: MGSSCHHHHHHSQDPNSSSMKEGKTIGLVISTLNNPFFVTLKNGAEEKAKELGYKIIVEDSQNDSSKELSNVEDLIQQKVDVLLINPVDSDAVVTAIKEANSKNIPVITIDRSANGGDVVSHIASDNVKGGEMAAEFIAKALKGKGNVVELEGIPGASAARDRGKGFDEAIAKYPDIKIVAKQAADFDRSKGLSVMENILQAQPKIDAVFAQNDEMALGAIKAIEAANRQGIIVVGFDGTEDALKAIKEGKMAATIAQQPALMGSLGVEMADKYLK

T2: MaturePDGF-β_NterminalPeptide
T2 construct: an N-terminal G was added and is left out of the numbering; also called PDGF-β peptide
T2 peptide: RhodamineB-GSLGSLTIAEPAMIAE

B1: RPtag(small) Cd1 (peptide)
peptide: RhodamineB-GEKIPNFIPAELKLITKENV
B2: RPtag(small) Nd2, e18a, v20a, q21a (peptide)
peptide: RhodamineB-KIPNFIPAELKLITKANAA
B3: RPtag(small) Nd2, p5a, e18a, v20a, q21a (peptide)
peptide: RhodamineB-KIANFIPAELKLITKANAA
B4: RPtag(small) Nd2, Cd4 (peptide)
peptide: RhodamineB-KIPNFIPAELKLITK
B5: RPtag(small) Nd2, Cd4, p5a (peptide)
peptide: RhodamineB-KIANFIPAELKLITK
B6: a253k (designed binder)
single chain: T1 chain with A253K
notes: also called RPtag(large) A253K
B7: f137t (designed binder)
single chain: T1 chain with F137T
notes: also called RPtag(large) F137T
B8: g130a (designed binder)
single chain: T1 chain with G130A
notes: also called RPtag(large) G130A
B9: h122l (designed binder)
single chain: T1 chain with H122L
notes: also called RPtag(large) H122L
B10: d126a (designed binder)
single chain: T1 chain with D126A
notes: also called RPtag(large) D126A
B11: f137s (designed binder)
single chain: T1 chain with F137S
notes: also called RPtag(large) F137S
B12: a253r (designed binder)
single chain: T1 chain with A253R
notes: also called RPtag(large) A253R
B13: h122a (designed binder)
single chain: T1 chain with H122A
notes: also called RPtag(large) H122A
B14: d126w (designed binder)
single chain: T1 chain with D126W
notes: also called RPtag(large) D126W
B15: g130v (designed binder)
single chain: T1 chain with G130V
notes: also called RPtag(large) G130V
B16: h122f (designed binder)
single chain: T1 chain with H122F
notes: also called RPtag(large) H122F
B17: RPtag(small) Cd3 (peptide)
peptide: RhodamineB-GEKIPNFIPAELKLITKE
B18: RPtag(small) Nd1 (peptide)
peptide: RhodamineB-EKIPNFIPAELKLITKENVQ
B19: RPtag(small) Cd4 (peptide)
peptide: RhodamineB-GEKIPNFIPAELKLITK
B20: RPtag(small) Cd2 (peptide)
peptide: RhodamineB-GEKIPNFIPAELKLITKEN
B21: RPtag(small) Nd2, Cd3 (peptide)
peptide: RhodamineB-KIPNFIPAELKLITKE
B22: RPtag(small) Nd2, Cd3, p5a (peptide)
peptide: RhodamineB-KIANFIPAELKLITKE
B23: RPtag(small) Nd2, Cd3, p5a, e18a (peptide)
peptide: RhodamineB-KIANFIPAELKLITKA
B24: RPtag(small) Nd2, Cd3, e18a (peptide)
peptide: RhodamineB-KIPNFIPAELKLITKA
B25: RPtag(small) i4a (peptide)
peptide: RhodamineB-GEKAPNFIPAELKLITKENVQ
B26: RPtag(small) v20a (peptide)
peptide: RhodamineB-GEKIPNFIPAELKLITKENAQ
notes: built here from the native peptide with the stated change
B27: RPtag(small) i8a (peptide)
peptide: RhodamineB-GEKIPNFAPAELKLITKENVQ
B28: RPtag(small) n6a (peptide)
peptide: RhodamineB-GEKIPAFIPAELKLITKENVQ
B29: RPtag(small) q21a (peptide)
peptide: RhodamineB-GEKIPNFIPAELKLITKENVA
notes: as for B26
B30: RPtag(small) l12a (peptide)
peptide: RhodamineB-GEKIPNFIPAEAKLITKENVQ
B31: RPtag(small) i15a (peptide)
peptide: RhodamineB-GEKIPNFIPAELKLATKENVQ
B32: RPtag(small) t16a (peptide)
peptide: RhodamineB-GEKIPNFIPAELKLIAKENVQ
B33: RPtag(small) p9a (peptide)
peptide: RhodamineB-GEKIPNFIAAELKLITKENVQ

How the values were obtained:
[1] = biological target: T1, NativeRPtag(large)_with_Tags_and_Cys; assay: fluorescence anisotropy
[2] = biological target: T1, NativeRPtag(large)_with_Tags_and_Cys; assay: fluorescence anisotropy, association kinetics
[3] = biological target: T1, NativeRPtag(large)_with_Tags_and_Cys; assay: calculated from koff and Kd
[4] = biological target: T1, NativeRPtag(large)_with_Tags_and_Cys; assay: fluorescence anisotropy, competitor chase
[5] = biological target: B4; assay: fluorescence anisotropy; 2 nM rhodamine Nd2Cd4, unlabeled RPtag large variant titrated; bar of Ka = 1/Kd, right axis
Description: (§1) After the incubation, fluorescence anisotropy was measured, and the resultant curves were fit with the equation f=y0+(ymax−y0)*(Ptot+x+Kd−sqrt((Ptot+x+Kd)\hat{ }2−4*Ptot*x))/(2*Ptot), where y0 is the baseline anisotropy, ymax is the maximum anisotropy, Ptot is the fixed concentration of labeled peptide used, x is the variable concentration of protein used, and Kd is the measured Kd. […] Buffer was 50 mM Tris pH 8.0, 0.005% Tween20.

[6] = biological target: T2, MaturePDGF-β_NterminalPeptide; assay: fluorescence anisotropy; 20 nM rhodamine PDGF-β N-terminal peptide, unlabeled RPtag large variant titrated; bar of Ka = 1/Kd, left axis
Description: as §1

Kd [1] | Keq (S-S*) [2] | kf (S to S*) [2] | kr (S* to S) [2] | kon [3] | koff [4] | binding result [5] | binding result [6] | Binder
0.55 nM | 2.5 | 0.1 min⁻¹ | 0.042 min⁻¹ | 183000 M⁻¹ s⁻¹ | 0.000102 s⁻¹ |  |  | B1
0.36 nM | 0.8 | 0.045 min⁻¹ | 0.06 min⁻¹ | 600000 M⁻¹ s⁻¹ | 0.000383 s⁻¹ |  |  | B2
0.16 nM | 0.4 | 0.05 min⁻¹ | 0.14 min⁻¹ | 3.33e+06 M⁻¹ s⁻¹ | 0.000217 s⁻¹ |  |  | B3
0.41 nM | 0.7 | 0.093 min⁻¹ | 0.13 min⁻¹ | 3.33e+06 M⁻¹ s⁻¹ | 0.00132 s⁻¹ |  |  | B4
0.82 nM | 0.8 | 0.11 min⁻¹ | 0.14 min⁻¹ | 3.67e+06 M⁻¹ s⁻¹ | 0.003 s⁻¹ |  |  | B5
 |  |  |  |  |  | binds | binds | B6
 |  |  |  |  |  | binds | binds | B7
 |  |  |  |  |  | binds | binds | B8
 |  |  |  |  |  | binds | binds | B9
 |  |  |  |  |  | binds | binds | B10
 |  |  |  |  |  | binds | binds | B11
 |  |  |  |  |  | binds | binds | B12
 |  |  |  |  |  | binds | binds | B13
 |  |  |  |  |  | binds | binds | B14
 |  |  |  |  |  | binds | binds | B15
 |  |  |  |  |  | binds | binds | B16
1.2 nM | 3.1 | 0.014 min⁻¹ | 0.045 min⁻¹ | 1.83e+06 M⁻¹ s⁻¹ | 0.002 s⁻¹ |  |  | B17

Kd [1] | Keq (S-S*) [2] | kf (S to S*) [2] | kr (S* to S) [2] | kon [3] | koff [4] | binding result [5] | binding result [6] | Binder
0.25 nM | 2.7 | 0.064 min⁻¹ | 0.024 min⁻¹ | 567000 M⁻¹ s⁻¹ | 0.000147 s⁻¹ |  |  | B18
1 nM | 1.3 | 0.014 min⁻¹ | 0.11 min⁻¹ | 3.67e+06 M⁻¹ s⁻¹ | 0.00367 s⁻¹ |  |  | B19
1.1 nM | 3.5 | 0.15 min⁻¹ | 0.043 min⁻¹ | 1.63e+06 M⁻¹ s⁻¹ | 0.00183 s⁻¹ |  |  | B20
0.56 nM | 0.6 | 0.081 min⁻¹ | 0.14 min⁻¹ | 1.37e+06 M⁻¹ s⁻¹ | 0.000767 s⁻¹ |  |  | B21
0.64 nM | 0.6 | 0.093 min⁻¹ | 0.16 min⁻¹ | 4.33e+06 M⁻¹ s⁻¹ | 0.00267 s⁻¹ |  |  | B22
0.56 nM | 0.7 | 0.086 min⁻¹ | 0.13 min⁻¹ | 5.5e+06 M⁻¹ s⁻¹ | 0.003 s⁻¹ |  |  | B23
0.13 nM | 0.3 | 0.084 min⁻¹ | 0.26 min⁻¹ | 6.67e+06 M⁻¹ s⁻¹ | 0.000883 s⁻¹ |  |  | B24
0.26 nM | 0.9 | 0.086 min⁻¹ | 0.098 min⁻¹ | 400000 M⁻¹ s⁻¹ | 0.0001 s⁻¹ |  |  | B25
0.18 nM | 1.5 | 0.073 min⁻¹ | 0.05 min⁻¹ | 1.13e+06 M⁻¹ s⁻¹ | 0.0002 s⁻¹ |  |  | B26
1.1 nM | 0.8 | 0.078 min⁻¹ | 0.046 min⁻¹ | 1.43e+06 M⁻¹ s⁻¹ | 0.0015 s⁻¹ |  |  | B27
0.34 nM | 1.3 | 0.082 min⁻¹ | 0.068 min⁻¹ | 75000 M⁻¹ s⁻¹ | 2.5e-05 s⁻¹ |  |  | B28
0.1 nM | 0.8 | 0.087 min⁻¹ | 0.11 min⁻¹ | 583000 M⁻¹ s⁻¹ | 5.67e-05 s⁻¹ |  |  | B29
4.7 nM | 1.1 | 0.089 min⁻¹ | 0.081 min⁻¹ | 717000 M⁻¹ s⁻¹ | 0.00333 s⁻¹ |  |  | B30
4.5 nM | 1.4 | 0.077 min⁻¹ | 0.053 min⁻¹ | 4.17e+06 M⁻¹ s⁻¹ | 0.0183 s⁻¹ |  |  | B31
1.2 nM | 2.5 | 0.071 min⁻¹ | 0.038 min⁻¹ | 1.25e+06 M⁻¹ s⁻¹ | 0.00148 s⁻¹ |  |  | B32
0.18 nM | 2.7 | 0.092 min⁻¹ | 0.04 min⁻¹ | 233000 M⁻¹ s⁻¹ | 4e-05 s⁻¹ |  |  | B33

Reference: US20200102347A1 (AUCTUS BIOLOGIES, published 2020)
